In general, Kd refers to a measure of binding affinity in units of concentration. One may read the koff as a measure of how fast the partners let go of each other. The kon is the second-order rate constant of association.

The target of experiment [1] is T1, human IL-17A (construct not stated) (human, UniProt Q16552 24-155, limits assumed).
T1 sequence: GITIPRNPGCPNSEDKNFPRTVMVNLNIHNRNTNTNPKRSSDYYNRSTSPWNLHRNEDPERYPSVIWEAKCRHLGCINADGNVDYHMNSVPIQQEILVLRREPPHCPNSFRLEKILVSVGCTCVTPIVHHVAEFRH
The experiment in a line: cell-based or functional assay.

For experiment [2], the target named is T2, recombinant human IL-17A (SEQ ID NO: 76) (human, UniProt Q16552 24-155, limits assumed).
T2 sequence: T1 sequence
The experiment in a line: cell-based or functional assay.

Experiment [3] addresses T2, recombinant human IL-17A (SEQ ID NO: 76). The experiment in a line: cell-based or functional assay. The source holds these as a separate data set.
Experiment [4] deals with T3, recombinant mouse IL-17A (SEQ ID NO: 83) (mouse, UniProt Q62386 26-158).
T3 sequence: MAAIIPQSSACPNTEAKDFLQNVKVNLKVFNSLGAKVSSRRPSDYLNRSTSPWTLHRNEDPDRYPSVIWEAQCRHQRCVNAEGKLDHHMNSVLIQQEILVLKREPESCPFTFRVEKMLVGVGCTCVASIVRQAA
The experiment in a line: cell-based or functional assay.

Experiment [5] addresses T4, recombinant human IL-17A (SEQ ID NO: 78) (human, UniProt Q16552 24-155, limits assumed).
T4 construct: homodimer; also called huIL-17A; hulL-17A
T4 sequence: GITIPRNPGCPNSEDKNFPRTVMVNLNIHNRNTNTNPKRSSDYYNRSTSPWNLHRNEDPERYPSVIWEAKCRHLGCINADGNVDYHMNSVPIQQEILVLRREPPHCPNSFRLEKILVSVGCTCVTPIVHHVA
The experiment in a line: SPR (Biacore), captured antibody, antigen as analyte.

For experiment [6], the target named is T4, recombinant human IL-17A (SEQ ID NO: 78). The experiment is described as above. The source holds these as a separate data set.
Experiment [7] has as its target T5, recombinant human IL-17A/F heterodimer (human, UniProt Q16552 24-155; Q96PD4 31-163, limits assumed).
T5 construct: heterodimer of an IL-17A subunit and an IL-17F subunit; also called huIL-17A/F; rhuIL-17A/F
T5 sequence (looked up) 1: T4 sequence
T5 sequence (looked up) 2: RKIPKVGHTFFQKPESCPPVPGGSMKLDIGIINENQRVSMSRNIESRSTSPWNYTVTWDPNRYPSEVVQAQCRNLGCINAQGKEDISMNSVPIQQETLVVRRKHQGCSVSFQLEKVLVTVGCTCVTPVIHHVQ
Described as above.

The target in experiment [8] is T6, recombinant cynomolgus IL-17A (SEQ ID NO: 79) (cynomolgus monkey, UniProt Q16552 24-155 (human entry), limits assumed).
T6 construct: also called cynoIL-17A; cyno IL-17A
T6 chain: T4 sequence with T3A, P8S, N34S, I77V, N78K, P104R
The description is as above.

In experiment [9] the target is T3, recombinant mouse IL-17A (SEQ ID NO: 83). Described as above.
The target in experiment [10] is T7, recombinant rat IL-17A (SEQ ID NO: 85) (rat, UniProt Q61453 18-150).
T7 construct: also called rratIL-17A; rIL-17A
T7 sequence: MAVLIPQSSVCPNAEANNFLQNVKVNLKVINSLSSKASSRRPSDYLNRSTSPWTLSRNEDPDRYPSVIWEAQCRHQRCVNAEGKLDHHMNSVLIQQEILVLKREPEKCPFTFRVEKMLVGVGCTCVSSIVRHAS
The description is as above.

Changes are numbered by the printed parent chain. Names may count otherwise. Read-outs that look alike come from different tables or passages of the source. A value given as a limit tells only on which side of the number the result lay.

B1: XAB2 (antibody, human IgG1, kappa, V domains shown)
VH: EVQLVESGGDLVQPGGSLRLSCAASGFTFSSYWMSWVRQAPGKGLEWVANIKQDGSEKYYVDSVKGRFTISRDNAKNSLYLQMNSLRAEDTAVYYCARDRGSLYYWGQGTLVTVSS
VL: AIQLTQSPSSLSASVGDRVTITCRPSQVIISALAWYQQKPGKAPKLLIYDASSLEQGVPSRFSGSVSGTDFTLTISSLQPEDFATYYCQQFDSYPLTFGGGTKVEIKR
Consider B1, for which, in [1], the “EC50, in vitro neutralization activity, T = 0 weeks” value is 45 ng/mL and the “EC50, in vitro neutralization activity, T = 4 weeks at pH 8, 40°C (forced deamidation)” value stood at 47 ng/ml. In addition, in experiment [2], the “IC50, huIL-6 secretion by BJ cells; stimulus rhuIL-17A (0.5 nM)” value is 0.64 nM. Also, the “IC50, huGROα secretion by BJ cells; stimulus rhuIL-17A (0.5 nM)” value in [3] came to 0.4 nM. For the same molecule, the “IC50, KC secretion by CMT-93 cells; stimulus mIL-17A (0.15 nM)” value in [4] came to 20.9 nM. In addition, in [5], the Kd is 0.0176 nM, the koff stood at 7.12e-05 s⁻¹ and the kon was 4.09e+06 M⁻¹ s⁻¹.

B2: XAB3 (antibody, human IgG1, kappa, V domains shown)
VH: B1 VH
VL: B1 VL with V28G, I30Y, S31W, A32E, V66G, D92N
notes: also called MB468 N56Q
In the case of B2, the “EC50, in vitro neutralization activity, T = 0 weeks” value in [1] was determined as 40 ng/mL. For the same molecule, in experiment [1], the “EC50, in vitro neutralization activity, T = 4 weeks at pH 8, 40°C (forced deamidation)” value amounted to 40 ng/ml. The “IC50, huIL-6 secretion by BJ cells; stimulus rhuIL-17A (0.5 nM)” value in experiment [2] was 0.5 nM. In addition, the “IC50, huGROα secretion by BJ cells; stimulus rhuIL-17A (0.5 nM)” value in experiment [3] turned out to be 0.42 nM. For the same molecule, the “IC50, KC secretion by CMT-93 cells; stimulus mIL-17A (0.15 nM)” value in experiment [4] was below 1 nM. Moreover, the dissociation constant (Kd) was 9.58 pM in experiment [6]; 0.0329 nM in [7]; 0.0349 nM in experiment [8]; 0.174 nM in [9]; 0.0826 nM in experiment [10]. Further, the koff worked out at 5.01e-05 s⁻¹ in experiment [6]; 0.000103 s⁻¹ in [7]; 4.23e-05 s⁻¹ in experiment [8]; 0.000101 s⁻¹ in [9]; 7.59e-05 s⁻¹ in [10]. Moreover, the kon in experiment [6] came to 5.48e+06 M⁻¹ s⁻¹; in [7], 3.37e+06 M⁻¹ s⁻¹; in [8], 1.21e+06 M⁻¹ s⁻¹; in [9] it was 587000 M⁻¹ s⁻¹; in experiment [10] it was 905000 M⁻¹ s⁻¹.

For the origin of these results see patent US20180194839A1 (Novartis, published 2018).
